The Human Domainome abundance scans (Beltran et al. 2025)

B1: Nucleolar transcription factor 1, residues 408 to 469; numbered along this chain, P17480 (parent)
chain: KRPVSAMFIFSEEKRRQLQEERPELSESELTRLLARMWNDLSEKKKAKYKAREAALKAQSER
B2: Zinc finger MYM-type protein 3, residues 589 to 668; numbered along this chain, Q14202 (parent)
chain: LSCHYCHSLFSGKPEVLDWQDQVFQFCCRDCCEDFKRLRGVVSQCEHCRQEKLLHEKLRFSGVEKSFCSEGCVLLYKQDF

Variants of: B1
Assay: abundance fitness (aPCA) (normalised: wild type 0, dead -1); higher = more abundant; growth selection in yeast, the domain comes from the species named
Settings: Homo sapiens

Abundance fitness of substitutions, site by site:
K1: C -0.367 | Q -0.196 | F -0.245 | M 0.004 | L -0.048 | S -0.276 | N -0.191 | A -0.287 | R -0.199 | G -0.08 | D 0.006 | H -0.212 | E -0.139 | I 0

Variants of: B2
Assay: as above
Settings: Homo sapiens

Abundance fitness of substitutions, site by site:
Y76: Q -0.179 | L -0.663 | N 0.757 | H 0.329 | G -0.28 | W -0.542 | V -0.317 | T -0.038 | K -0.048 | S -0.473 | D -0.176 | E -0.107 | M -0.524
E64: V -0.359 | R -0.692 | T -0.238 | H -0.355 | D 0.047 | L -0.633 | W -0.176 | M -0.316 | G -0.48 | A -0.571 | Q -0.363 | C -0.165 | I -0.344
G62: A -0.722 | Q -0.865 | M -0.3 | R -0.788 | E 0.013 | P -1.01 | V -0.8 | W -0.85 | L -1.05
R59: T 0.631 | K 0.419 | G -0.261 | C 0.514 | Q 0.11 | L 0.251 | W 0.336 | S 0.541 | A 0.22 | E 0.386 | N 0.609 | D 0.257 | V 0.306
V73: A 0.236 | Q -0.309 | D -0.521 | T -0.167 | W -0.167 | R 0.149 | S 0.167 | L 0.268 | E -0.027 | G -0.188
Q78: W -0.698 | I -0.34 | L 0.466 | T -0.188 | G -0.292 | P -0.595 | E 0.018 | A 0.034 | C -0.892 | M -0.372 | S 0.069 | V -0.833 | D 0.567 | H 0.565 | R 0.113
H55: W -0.334 | Y 0.223 | V -0.006
V63: L -0.074 | E 0.175 | R -0.285 | D -0.175 | T -0.271 | Q -0.548 | P -0.198 | A -0.109 | S -0.255 | K -0.13
F80: R 0.522 | T 0.652 | L 0.5 | V 0.281 | A 0.288 | W -0.146 | S 0.194 | M 0.294 | P 0.525 | C 0.093 | G 0.033
L74: Q 0.244 | I -0.381 | N 0.453 | Y -0.446 | V -0.195 | G 0.183 | H 0.041 | S -0.081 | T 0.151 | D 0.145 | A 0.404 | E 0.662 | M 0.292 | R 0.484 | P -0.205 | W 0.081
C68: R -0.892 | E -0.911 | K -0.525 | A -0.93 | M -0.505 | S -0.619 | W -1.18 | Q -0.558 | G -0.88
S61: K -0.096 | D 0.665 | L -0.311 | Q -0.12 | W -0.467 | M 0.02 | A 0.284 | R -0.137 | P -0.424 | E 0.293 | G 0.282 | V -0.389
F67: C 0.283 | S -0.297 | E -0.626 | A -0.47 | P -0.47 | G 0.039 | T -0.614 | L -0.852 | K -0.391 | W -0.302 | N -0.231 | M -0.567 | H 0.092 | Q -0.338 | R -0.497
D79: L 0.034 | W -0.378 | Q 0.475 | G 0.187 | E 0.018 | K 0.856 | R 0.351 | V -0.531 | P 0.119 | T -0.07 | A 0.089 | S 0.241
L75: E 0.268 | C 0.373 | T -0.078 | S 0.258 | D 0.492 | K 0.318 | P -0.268 | M 0.176 | V -0.551 | N 0.227 | G 0.276 | H -0.295 | Q 0.573 | A 0.615 | W -0.561
E70: G -0.116 | R -0.687 | C 0.121 | V -0.066 | I 0.781 | M -0.152 | Q 0.199 | W -0.918 | T -0.048 | D 0 | A -0.096 | P 0.069 | S 0.067 | L -0.055
F60: G -0.314 | L 0.103 | S 0.059 | M 0.079 | V 0.204 | R -0.327 | Q -0.069 | P 0.113 | E 0.256 | C -0.503 | T -0.975 | A -0.034 | D -0.529
S66: Y 0.382 | L 0.068 | T -0.617 | Q -0.618 | V -0.235 | H 0.295 | K 0.067 | P -0.834 | A -0.222 | E -0.473 | G -0.392 | M -0.002 | R -0.059
L58: A 0.158 | H 0.542 | G 0.012 | W -0.23 | F 0.065 | R 0.148 | C -0.179 | E 0.094 | V 0.544 | T -0.364 | Q -0.146 | S -0.254
K57: V -0.192 | A -0.487 | W -0.756 | Q -0.131 | L -0.016 | N -0.237 | F -0.16 | S -0.361 | D 0.159 | I 0.297 | C -0.433 | R 0.092 | T 0.05 | G -0.493 | E -0.256 | P -0.804
E56: P -0.288 | M -0.22 | S -0.299 | F 0.467 | C -0.041 | Y -0.01 | H -0.161 | Q -0.112 | V 0.548 | R -0.006 | T -0.091 | L 0.131 | G -0.47
K65: D -0.711 | S -1.12 | G -0.779 | A -0.268 | M 0.26 | Y -0.113 | L -0.441 | P 0.325 | R -0.115 | V -0.317 | E -1.07 | T -0.495 | Q -0.692
C72: S -0.935 | E -0.644 | K -0.33 | L -1.04 | R -0.781 | M -0.514 | Q -0.317 | W -0.53 | P -0.725 | V -0.647 | A -0.525 | T -0.869
K77: E -0.406 | G -0.404 | A -0.78 | L -0.304 | V -0.193 | P -0.71 | R -0.455 | T -0.108 | S -0.495 | Q -0.149 | F -0.394
S69: Q -0.638 | K -0.282 | A -0.023 | E -0.341 | W -0.623 | G -0.64 | D -0.702 | P -0.445 | V -0.534 | R -0.456 | I -0.15 | C 0.093
G71: M 0.721 | C -0.535 | L -0.105 | S 0.453 | E 0.62 | I 0.317 | Q 0.378 | D 0.351 | V -0.043 | H -0.037 | A 0.156 | K 0.337 | T 0.414 | R 0.501 | W -0.219
